Biological target: immune complexes (Dylight 650-labeled BSA + polyclonal rabbit anti-BSA IgG + human serum complement) (bovine) (UniProt P02769)
Assay: cell-based or functional assay

Sequence of UniProt P02769 (P02769 25-607, one chain of several): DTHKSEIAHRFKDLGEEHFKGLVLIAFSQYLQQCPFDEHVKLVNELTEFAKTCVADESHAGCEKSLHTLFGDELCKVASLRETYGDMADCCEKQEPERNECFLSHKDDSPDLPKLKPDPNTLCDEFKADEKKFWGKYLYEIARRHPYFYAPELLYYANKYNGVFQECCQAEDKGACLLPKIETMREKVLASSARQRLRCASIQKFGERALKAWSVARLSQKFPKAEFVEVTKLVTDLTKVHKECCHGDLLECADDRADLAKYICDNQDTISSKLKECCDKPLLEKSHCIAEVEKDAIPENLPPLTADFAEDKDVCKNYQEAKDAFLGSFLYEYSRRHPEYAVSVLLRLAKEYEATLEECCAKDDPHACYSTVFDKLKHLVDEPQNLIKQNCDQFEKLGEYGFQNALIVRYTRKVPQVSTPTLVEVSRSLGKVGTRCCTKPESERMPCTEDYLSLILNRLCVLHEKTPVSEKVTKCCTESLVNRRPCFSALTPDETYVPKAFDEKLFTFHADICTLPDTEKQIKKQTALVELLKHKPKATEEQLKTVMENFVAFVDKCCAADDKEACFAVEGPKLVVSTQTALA

uptake of fluorescent immune complexes by activated U937 macrophages in co-culture (flow cytometry): 2 fold
Substance: complement receptor 1 (CR1) exogenously over-expressed on the surface of cultured erythroid cells (from UniProt P17927 42-2039)

Reference: patent US20190376034A1
